Results published in PMC9482650, “Quantitative fragmentomics allow affinity mapping of interactomes” (Nature Communications, 2022).

What was measured:
Assay in all cases: holdup assay
Design in all cases: key: below the threshold = too weak to quantify, mostly under pKd 3.1 to 4
FRMPD2_2, Q68DX3 = molecular target: FRMPD2_2, Q68DX3
NOS1, P29475 = molecular target: NOS1, P29475
LIN7A, O14910 = molecular target: T1, LIN7A, O14910
T1 sequence (O14910 103-200, limits assumed, looked up): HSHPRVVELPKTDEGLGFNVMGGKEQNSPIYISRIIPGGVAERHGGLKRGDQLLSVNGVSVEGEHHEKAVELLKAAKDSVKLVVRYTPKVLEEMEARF

Inadl_2, Q8NI35 = molecular target: Inadl_2, Q8NI35
TIAM2, Q8IVF5 = molecular target: T2, TIAM2, Q8IVF5
T2 sequence (Q8IVF5 885-986, limits assumed, looked up): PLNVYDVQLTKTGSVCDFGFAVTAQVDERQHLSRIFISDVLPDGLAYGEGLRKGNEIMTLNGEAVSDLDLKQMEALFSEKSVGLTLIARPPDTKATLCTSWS

PARD3B_1, Q8TEW8 = molecular target: T3, PARD3B_1, Q8TEW8
T3 sequence (Q8TEW8 196-299, limits assumed, looked up): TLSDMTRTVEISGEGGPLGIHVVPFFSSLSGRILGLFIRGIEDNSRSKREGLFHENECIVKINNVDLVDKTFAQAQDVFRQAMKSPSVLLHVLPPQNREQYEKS

PICK1, Q9NRD5 = molecular target: PICK1, Q9NRD5
APBA1_1, Q02410 = molecular target: T4, APBA1_1, Q02410
T4 sequence (Q02410 651-752, limits assumed, looked up): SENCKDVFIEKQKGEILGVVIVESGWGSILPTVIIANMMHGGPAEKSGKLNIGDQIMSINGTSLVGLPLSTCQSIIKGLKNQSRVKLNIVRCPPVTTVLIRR

GOPC, Q9HD26 = molecular target: GOPC, Q9HD26
DLG5_1, Q8TDM6 = molecular target: DLG5_1, Q8TDM6
GRIP1_3, Q9Y3R0 = molecular target: T5, GRIP1_3, Q9Y3R0
T5 sequence (Q9Y3R0 247-346, limits assumed, looked up): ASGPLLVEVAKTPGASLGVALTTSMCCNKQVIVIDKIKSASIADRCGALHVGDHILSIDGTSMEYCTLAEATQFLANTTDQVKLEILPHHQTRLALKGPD

NHERF2_2, Q15599 = molecular target: NHERF2_2, Q15599
Inadl_9, Q8NI35 = molecular target: Inadl_9, Q8NI35
MAGI2_2, Q86UL8 = molecular target: MAGI2_2, Q86UL8
PCLO, Q9Y6V0 = molecular target: T6, PCLO, Q9Y6V0
T6 sequence (Q9Y6V0 4491-4600, limits assumed, looked up): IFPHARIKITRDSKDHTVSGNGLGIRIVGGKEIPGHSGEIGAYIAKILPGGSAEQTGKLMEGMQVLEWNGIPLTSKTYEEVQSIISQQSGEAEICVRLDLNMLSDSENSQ

ARHGEF12, Q9NZN5-2 = molecular target: ARHGEF12, Q9NZN5-2
LRRC7, Q96NW7 = molecular target: T7, LRRC7, Q96NW7
T7 sequence (Q96NW7 1440-1537, limits assumed, looked up): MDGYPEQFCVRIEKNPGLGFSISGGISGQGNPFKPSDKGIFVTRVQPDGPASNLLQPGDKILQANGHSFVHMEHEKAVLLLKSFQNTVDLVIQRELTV

GRIP1_4, Q9Y3R0 = molecular target: T8, GRIP1_4, Q9Y3R0
T8 sequence (Q9Y3R0 467-571, limits assumed, looked up): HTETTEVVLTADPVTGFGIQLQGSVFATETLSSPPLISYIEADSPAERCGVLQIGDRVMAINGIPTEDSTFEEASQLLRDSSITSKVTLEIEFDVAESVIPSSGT

PARD3_3, Q8TEW0 = molecular target: PARD3_3, Q8TEW0
PDZRN4_1, Q6ZMN7 = molecular target: PDZRN4_1, Q6ZMN7
HTRA4, P83105 = molecular target: T9, HTRA4, P83105
T9 sequence (P83105 378-476, limits assumed, looked up): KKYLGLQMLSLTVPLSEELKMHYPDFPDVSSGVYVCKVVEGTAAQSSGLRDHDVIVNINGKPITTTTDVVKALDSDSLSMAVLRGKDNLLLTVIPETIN

GRIP1_2, Q9Y3R0 = molecular target: T10, GRIP1_2, Q9Y3R0
T10 sequence (Q9Y3R0 145-248, limits assumed, looked up): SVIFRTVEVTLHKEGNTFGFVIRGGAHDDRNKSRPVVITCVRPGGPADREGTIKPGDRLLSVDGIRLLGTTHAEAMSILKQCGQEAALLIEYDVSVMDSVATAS

APBA1_2, Q02410 = molecular target: T11, APBA1_2, Q02410
T11 sequence (Q02410 742-832, limits assumed, looked up): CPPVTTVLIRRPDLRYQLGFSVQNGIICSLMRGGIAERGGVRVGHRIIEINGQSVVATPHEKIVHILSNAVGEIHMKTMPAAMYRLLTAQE

GRIP2_3, Q9C0E4 = molecular target: GRIP2_3, Q9C0E4
DLG2_2, Q15700 = molecular target: DLG2_2, Q15700
Inadl_8, Q8NI35 = molecular target: Inadl_8, Q8NI35
[1] = plain residues with an end cap or a label only (N-terminal biotin on a linker: ado-ado)
[2] = plain residues with an end cap or a label only (N-terminal biotin on a linker: ahx)

Measured: pKd

Inadl_2, Q8NI35, sequence (Q8NI35 238-335): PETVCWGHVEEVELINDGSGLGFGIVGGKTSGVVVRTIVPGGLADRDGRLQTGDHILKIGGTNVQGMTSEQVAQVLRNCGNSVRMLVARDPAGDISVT
MAGI2_2, Q86UL8, sequence (Q86UL8 410-522): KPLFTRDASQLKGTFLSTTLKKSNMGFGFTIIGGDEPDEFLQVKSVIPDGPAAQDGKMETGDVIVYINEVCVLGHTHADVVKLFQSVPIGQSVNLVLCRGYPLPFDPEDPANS
ARHGEF12, Q9NZN5-2, sequence (Q9NZN5 other isoform, or with tags, fused parts or gaps): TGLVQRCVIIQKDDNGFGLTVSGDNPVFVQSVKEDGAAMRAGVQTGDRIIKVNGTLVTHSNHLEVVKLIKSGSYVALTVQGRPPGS
NHERF2_2, Q15599, sequence (Q15599 142-238): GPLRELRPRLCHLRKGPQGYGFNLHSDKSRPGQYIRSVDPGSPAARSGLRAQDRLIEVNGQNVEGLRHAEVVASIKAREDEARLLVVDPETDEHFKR
PDZRN4_1, Q6ZMN7, sequence (Q6ZMN7 213-318): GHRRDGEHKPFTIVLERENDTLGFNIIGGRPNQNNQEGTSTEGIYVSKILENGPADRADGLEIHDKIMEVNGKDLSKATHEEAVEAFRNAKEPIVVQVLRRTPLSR
NOS1, P29475, sequence (P29475 9-101): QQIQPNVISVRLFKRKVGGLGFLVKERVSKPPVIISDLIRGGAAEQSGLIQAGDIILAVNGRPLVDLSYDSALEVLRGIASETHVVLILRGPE
DLG5_1, Q8TDM6, sequence (Q8TDM6 617-713): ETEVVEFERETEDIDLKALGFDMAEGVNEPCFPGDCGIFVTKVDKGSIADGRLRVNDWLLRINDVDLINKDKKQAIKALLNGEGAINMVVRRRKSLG
PICK1, Q9NRD5, sequence (Q9NRD5 17-115): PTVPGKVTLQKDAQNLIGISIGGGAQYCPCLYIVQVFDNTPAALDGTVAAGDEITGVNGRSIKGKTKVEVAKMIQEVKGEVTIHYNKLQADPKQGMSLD
PARD3_3, Q8TEW0, sequence (Q8TEW0 582-685): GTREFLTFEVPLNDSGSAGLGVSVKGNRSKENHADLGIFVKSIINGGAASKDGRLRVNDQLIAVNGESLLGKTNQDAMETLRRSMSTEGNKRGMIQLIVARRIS
Inadl_8, Q8NI35, sequence (Q8NI35 1425-1530): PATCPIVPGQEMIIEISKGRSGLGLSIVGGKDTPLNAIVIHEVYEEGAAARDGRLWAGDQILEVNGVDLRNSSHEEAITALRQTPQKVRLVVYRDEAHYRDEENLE
Inadl_9, Q8NI35, sequence (Q8NI35 1530-1615): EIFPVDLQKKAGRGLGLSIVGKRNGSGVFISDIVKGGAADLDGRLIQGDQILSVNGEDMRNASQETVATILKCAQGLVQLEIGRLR
DLG2_2, Q15700, sequence (Q15700 189-283): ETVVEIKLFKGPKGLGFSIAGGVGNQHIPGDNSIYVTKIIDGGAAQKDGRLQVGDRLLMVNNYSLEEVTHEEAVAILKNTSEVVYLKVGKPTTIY
GRIP2_3, Q9C0E4, sequence (Q9C0E4 238-339): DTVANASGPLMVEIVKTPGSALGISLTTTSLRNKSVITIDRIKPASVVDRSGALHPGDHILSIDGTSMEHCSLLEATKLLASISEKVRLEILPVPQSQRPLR
FRMPD2_2, Q68DX3, sequence (Q68DX3 944-1038): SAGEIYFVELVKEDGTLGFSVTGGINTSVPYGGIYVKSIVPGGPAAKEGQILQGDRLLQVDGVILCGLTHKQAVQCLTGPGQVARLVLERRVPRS

DGVNEKVSCV [HTR2A, P28223]
4: APBA1_2, Q02410; [1]
4.81: Inadl_8, Q8NI35; [1]
4.36: ARHGEF12, Q9NZN5-2; [1]
4.15: MAGI2_2, Q86UL8; [1]
4.01: TIAM2, Q8IVF5; [1]
4.56: DLG2_2, Q15700; [1]
4.65: FRMPD2_2, Q68DX3; [1]
3.71: HTRA4, P83105; [1]
below the threshold: Inadl_2, Q8NI35; [1] | PARD3B_1, Q8TEW8; [1] | PICK1, Q9NRD5; [1] | APBA1_1, Q02410; [1] | GOPC, Q9HD26; [1] | DLG5_1, Q8TDM6; [1] | GRIP1_3, Q9Y3R0; [1] | NHERF2_2, Q15599; [1] | Inadl_9, Q8NI35; [1] | PCLO, Q9Y6V0; [1] | LRRC7, Q96NW7; [1] | GRIP1_4, Q9Y3R0; [1] | PARD3_3, Q8TEW0; [1] | PDZRN4_1, Q6ZMN7; [1] | GRIP1_2, Q9Y3R0; [1] | GRIP2_3, Q9C0E4; [1]
3.51: LIN7A, O14910; [1]
3.69: NOS1, P29475; [1]

APSRKLNTEI [TIAM1, Q13009]
below the threshold: FRMPD2_2, Q68DX3; [2] | NOS1, P29475; [2] | LIN7A, O14910; [2] | Inadl_2, Q8NI35; [2] | TIAM2, Q8IVF5; [2] | PARD3B_1, Q8TEW8; [2] | PICK1, Q9NRD5; [2] | APBA1_1, Q02410; [2] | GOPC, Q9HD26; [2] | DLG5_1, Q8TDM6; [2] | GRIP1_3, Q9Y3R0; [2] | NHERF2_2, Q15599; [2] | Inadl_9, Q8NI35; [2] | MAGI2_2, Q86UL8; [2] | PCLO, Q9Y6V0; [2] | LRRC7, Q96NW7; [2] | GRIP1_4, Q9Y3R0; [2] | PARD3_3, Q8TEW0; [2] | PDZRN4_1, Q6ZMN7; [2] | HTRA4, P83105; [2] | GRIP1_2, Q9Y3R0; [2] | APBA1_2, Q02410; [2] | GRIP2_3, Q9C0E4; [2] | DLG2_2, Q15700; [2] | Inadl_8, Q8NI35; [2]
3.76: ARHGEF12, Q9NZN5-2; [2]

TESNLQTSSC [CGN, Q9P2M7]
3.71: ARHGEF12, Q9NZN5-2; [2]
below the threshold: FRMPD2_2, Q68DX3; [2] | NOS1, P29475; [2] | LIN7A, O14910; [2] | Inadl_2, Q8NI35; [2] | TIAM2, Q8IVF5; [2] | PARD3B_1, Q8TEW8; [2] | PICK1, Q9NRD5; [2] | APBA1_1, Q02410; [2] | GOPC, Q9HD26; [2] | DLG5_1, Q8TDM6; [2] | GRIP1_3, Q9Y3R0; [2] | NHERF2_2, Q15599; [2] | Inadl_9, Q8NI35; [2] | MAGI2_2, Q86UL8; [2] | PCLO, Q9Y6V0; [2] | LRRC7, Q96NW7; [2] | GRIP1_4, Q9Y3R0; [2] | PARD3_3, Q8TEW0; [2] | PDZRN4_1, Q6ZMN7; [2] | HTRA4, P83105; [2] | GRIP1_2, Q9Y3R0; [2] | APBA1_2, Q02410; [2] | GRIP2_3, Q9C0E4; [2] | DLG2_2, Q15700; [2]
4.18: Inadl_8, Q8NI35; [2]

RSSGGDDFWF [KCNV1, Q6PIU1]
4.01: PICK1, Q9NRD5; [1]
4.97: PARD3_3, Q8TEW0; [1]
4.69: NHERF2_2, Q15599; [1]
4.48: PARD3B_1, Q8TEW8; [1]
4.28: Inadl_2, Q8NI35; [1]
below the threshold: FRMPD2_2, Q68DX3; [1] | NOS1, P29475; [1] | LIN7A, O14910; [1] | APBA1_1, Q02410; [1] | GOPC, Q9HD26; [1] | DLG5_1, Q8TDM6; [1] | GRIP1_3, Q9Y3R0; [1] | Inadl_9, Q8NI35; [1] | MAGI2_2, Q86UL8; [1] | PCLO, Q9Y6V0; [1] | ARHGEF12, Q9NZN5-2; [1] | LRRC7, Q96NW7; [1] | GRIP1_4, Q9Y3R0; [1] | PDZRN4_1, Q6ZMN7; [1] | HTRA4, P83105; [1] | GRIP1_2, Q9Y3R0; [1] | APBA1_2, Q02410; [1] | GRIP2_3, Q9C0E4; [1] | DLG2_2, Q15700; [1] | Inadl_8, Q8NI35; [1]
4.47: TIAM2, Q8IVF5; [1]

GTGYDRKDYV [CLDN3, O15551]
4.24: APBA1_2, Q02410; [1]
4.13: Inadl_8, Q8NI35; [1]
below the threshold: FRMPD2_2, Q68DX3; [1] | LIN7A, O14910; [1] | Inadl_2, Q8NI35; [1] | TIAM2, Q8IVF5; [1] | PICK1, Q9NRD5; [1] | APBA1_1, Q02410; [1] | GOPC, Q9HD26; [1] | GRIP1_3, Q9Y3R0; [1] | MAGI2_2, Q86UL8; [1] | PCLO, Q9Y6V0; [1] | ARHGEF12, Q9NZN5-2; [1] | LRRC7, Q96NW7; [1] | GRIP1_4, Q9Y3R0; [1] | PDZRN4_1, Q6ZMN7; [1] | HTRA4, P83105; [1] | GRIP1_2, Q9Y3R0; [1] | GRIP2_3, Q9C0E4; [1] | DLG2_2, Q15700; [1]
3.93: Inadl_9, Q8NI35; [1]
3.59: DLG5_1, Q8TDM6; [1]
3.6: NHERF2_2, Q15599; [1]
3.52: PARD3_3, Q8TEW0; [1]
4.45: NOS1, P29475; [1]
3.51: PARD3B_1, Q8TEW8; [1]
